Broadly, the stoichiometry N is a count of units in the complex or per binding partner.

The experiment has as its target GFP(+36). In words: time-resolved fluorescence anisotropy; AfFtn-GFP(+36) assembly at pH 7.6 with 500 mM NaCl and with 175 mM NaCl; [GFP] = 1 uM; biexponential fit (instrument response, rotational diffusion of the assembly), no homoFRET; triplicate. (In fluorescence polarisation assays a small probe gives low polarisation when free and higher when bound to something large.)

In turn, AfFtn (from UniProt O29424 1-173) came in with a stoichiometry N of 12 to 1.

These data come from article PMC12893043.
